Results published in paper PMC2711901 (Nature structural & molecular biology, 2009).

Target: T1, GST-Ubc9 (S. pombe, UniProt P40984 1-157)
T1 sequence (looked up): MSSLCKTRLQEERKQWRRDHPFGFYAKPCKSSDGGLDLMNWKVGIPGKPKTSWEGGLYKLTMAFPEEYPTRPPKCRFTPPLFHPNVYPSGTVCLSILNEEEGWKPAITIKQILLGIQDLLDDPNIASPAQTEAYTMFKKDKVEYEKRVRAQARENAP
Assay: pull-down

B1: 6His-Rad60 SLD2 (domain or fragment, S. pombe, UniProt Q9USX3 332-406, looked up)
chain: KLITLLLRSSKSEDLRLSIPVDFTVKDLIKRYCTEVKISFHERIRLEFEGEWLDPNDQVQSTELEDEDQVSVVLD
binding result: binds
